The target of assay [1] is T1, BSA (Bos taurus, UniProt P02769).
T1 construct: commercial protein; also called Bovine Serum Albumine
The assay is described as follows: micropanning: monoclonal phage on BSA coated on a 96-well plate, bound phage eluted and counted.

Assay [2] deals with T2, hen egg white lysozyme (Gallus gallus, UniProt P00698 19-147).
T2 construct: mature; The residue numbers E35, D52, W63, D101 and N103 fit mature numbering; also called hen egg lysozyme; Gallus gallus egg white lysozyme
T2 sequence (P00698 19-147): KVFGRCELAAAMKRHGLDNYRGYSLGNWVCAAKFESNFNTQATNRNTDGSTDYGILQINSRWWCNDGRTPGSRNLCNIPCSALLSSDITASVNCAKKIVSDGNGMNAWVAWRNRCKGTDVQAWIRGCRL
The assay is described as follows: SPR (Biacore), lysozyme amine-coupled to CM5 chip, L6 as analyte from 370 µM in 1:2 dilutions, steady-state response plot. As to the method: The ligand lysozyme was coupled to a CM5 Biacore sensor chip, at 30 µg/mL in sodium acetate buffer at pH 4.3 via the primary amine groups of the protein. The second of four flow cells available on the chip was activated with 35 µL, at 5 µL/min, of a 1:1 mixture of EDC:NHS (commercially available from Biacore). Lysozyme was coupled to the activated surface with successive injections of between 10-20 µL, until an adequate response was seen. Remaining uncoupled active groups on the chip were deactivated with an injection of ethanolamine-HCl. For analysis, OB3 13mRL L6 was organized in a 1:2 dilution series of six concentrations, beginning at 370 µM in running buffer, plus a buffer-only blank. Each of the seven samples were analyzed in duplicate for 1 min @ 25 µL/min, in random order, using the first flow cell as a reference. The response curves were visualized and processed using BIAevaluation (Biacore). Relative response at each concentration was averaged and plotted to determine Rmax and kD using Sigma Plot (Systat Software, Inc.).
On the technique in general: In SPR one partner is held on a chip, and binding of the other changes the refractive index at the surface.

For assay [3], the target named is T2, hen egg white lysozyme. Kind of assay: micropanning: monoclonal phage on lysozyme coated on a 96-well plate, bound phage eluted and counted by bacterial infection. As to the method: BSA (white), RNaseA (hatched) and hen egg white lysozyme (black) were immobilised and incubated with monoclonal phage samples. Bound particles were detected with a mouse anti-M13 primary antibody and an HRP-conjugated anti-mouse secondary antibody. […] A 96-well plate was coated with lysozyme (black bars) or BSA (white bars) and incubated with monoclonal phage samples from clones picked after 6 rounds of selection. Bound phage were eluted and counted by bacterial infection.
Hen egg white lysozyme is a small stable protein which is commercially available and has a number of medically important human homologues. After four rounds of panning on immobilised lysozyme, enrichment of bound phage was observed. A further two more rounds of panning were performed before clones were randomly picked and screened for binding to lysozyme. Monoclonal phage samples were then prepared and studies were undertaken to characterize binding in a 'micropanning' approach on lysozyme immobilised on a 96-well ELISA plate. Bound phage were eluted and counted. […] These clones were sequenced. Sequences for some of the clones were identical (L14 and L15; L4 and L18; L8 and L21) narrowing down the number of unique clones to six.

For assay [4], the target named is T2, hen egg white lysozyme. Kind of assay: surface plasmon resonance; L8, from the crystal-structure interface table.
In assay [5] the target is T2, hen egg white lysozyme. The assay is described as follows: phage ELISA, multivalent display, immobilised hen egg white lysozyme, anti-M13 antibody and HRP-conjugated secondary antibody, absorbance. On the procedure:
(§1) Phage ELISA experiments were performed to analyse selected clones for binding to lysozyme. Ninety-six-well ELISA plates were coated with 5 ug/ml hen egg lysozyme, 5 ug/ml RNaseA or 1% BSA in PBS at 4° C. overnight. After two washes with TBS, plates were blocked with blocking buffer (5% skim milk in TBS) for one hour at RT before phage (10^9 cfu/well, derived from VCS-M13d3) were added in 2.5% skim milk-TBS-T. Plates were incubated for 2 hours at RT with agitation. After 10 washes with H_2O, mouse anti-M13 protein VIII diluted in blocking buffer was added and incubated for 1 h at RT. Plates were washed 4 times with H_2O and horseradish peroxidase (HRP)-coupled rabbit-anti-mouse immunoglobulins (Pierce) in blocking buffer were added to the wells and incubated for 1 h at RT. Wells were washed 4 times with H_2O and 50 ul substrate solution (1 mg/ml o-phenylene-diamine in PBS 0.030% H_2O_2) was added per well. The reaction was stopped after ~15 min by addition of 25 ul 2.5 M H_2SO_4 and the absorbance was recorded at 492 nm.
(§2) BSA (white), RNaseA (hatched) and hen egg white lysozyme (black) were immobilised and incubated with monoclonal phage samples. Bound particles were detected with a mouse anti-M13 primary antibody and an HRP-conjugated anti-mouse secondary antibody. […] Bound phage were eluted and counted by bacterial infection.
(ELISA stands for enzyme-linked immunosorbent assay.)

Assay [6] deals with T3, RNaseA (Bos taurus, UniProt P61823).
T3 construct: commercial protein
T3 sequence (single chain, looked up): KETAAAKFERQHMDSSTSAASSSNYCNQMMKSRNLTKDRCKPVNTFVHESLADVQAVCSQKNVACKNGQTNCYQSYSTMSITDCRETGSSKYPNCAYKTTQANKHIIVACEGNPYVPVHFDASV
The assay is described as follows: phage ELISA, immobilised RNaseA, anti-M13 antibody and HRP-conjugated secondary antibody, absorbance.

For assay [7], the target named is T1, BSA. Kind of assay: phage ELISA, immobilised BSA, anti-M13 antibody and HRP-conjugated secondary antibody, absorbance.
Assay [8] deals with T2, hen egg white lysozyme. Kind of assay: phage ELISA on immobilised lysozyme, multivalent display.
The target in assay [9] is T3, RNaseA. Kind of assay: phage ELISA, multivalent display, immobilised RNaseA, anti-M13 antibody and HRP-conjugated secondary antibody, absorbance. As to the method:
as §1, §2

T1 sequence (P02769 25-607 limits assumed): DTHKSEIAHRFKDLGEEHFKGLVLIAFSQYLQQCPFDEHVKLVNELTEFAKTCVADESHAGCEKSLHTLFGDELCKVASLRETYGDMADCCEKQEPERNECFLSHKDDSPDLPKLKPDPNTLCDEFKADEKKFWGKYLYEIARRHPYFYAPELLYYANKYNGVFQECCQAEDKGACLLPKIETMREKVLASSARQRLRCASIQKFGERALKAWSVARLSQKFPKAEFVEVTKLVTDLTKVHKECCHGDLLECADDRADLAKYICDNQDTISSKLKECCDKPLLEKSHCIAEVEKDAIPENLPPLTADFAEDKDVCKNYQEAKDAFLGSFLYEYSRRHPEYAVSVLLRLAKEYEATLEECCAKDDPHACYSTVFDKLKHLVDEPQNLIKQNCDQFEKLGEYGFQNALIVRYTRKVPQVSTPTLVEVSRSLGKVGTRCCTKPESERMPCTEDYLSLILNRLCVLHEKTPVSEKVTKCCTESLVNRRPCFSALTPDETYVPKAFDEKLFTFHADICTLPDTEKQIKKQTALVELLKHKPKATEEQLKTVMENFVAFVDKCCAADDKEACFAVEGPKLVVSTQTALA

B1: L6 (aspRS-OB 13mRL mutant) displayed on phage as pIII fusion (designed binder)
chain: VYPKKTHWTAEITPNLHGTEVVVAGWVEDLVDAGKTKWVFVCDREGGAQVIVELVAGKTPDHLFKVFAELSREDVVVIKGIVEASKSRAVGVEIFPSEIWILNKAKPLPID
notes: Monoclonal phage; Monovalent display in micropanning, multivalent display in ELISA; not shown: c-myc tag and pIII of phagemid pRPSP2 (display carriers at the C end)
In the case of B1, in assay [1], the binding result is recorded as “no binding”.

B2: OB3 13mRL L6, expressed and purified (designed binder)
chain: VYPKKTHWTAEITPNLHGTEVVVAGWVEDLVDAGKTKWVFVCDREGGAQVIVELVAGKTPDHLFKVFAELSREDVVVIKGIVEASKSRAVGVEIFPSEIWILNKAKPLPID
notes: Analyte in the Biacore experiment; also called Clone L6; selected OB-fold domain L6
The molecule B2 gave a Kd in assay [2] of 36 µM.

B3: L16 (aspRS-OB 13mRL mutant) displayed on phage as pIII fusion (designed binder)
chain: VYPKKTHWTAEITPNLHGTEVVVAGWVASLVDGGPRKWVFVRDREGGAEVTVELTAGKTPDHLFKVFAELSREDVVVIKGIVEASKGLRWGVEIFPSEIWILNKAKPLPID
notes: Monoclonal phage, monovalent display, micropanning only; not shown: c-myc tag and pIII of phagemid pRPSP2 (display carriers at the C end)
As for B3, the figures for the binding result in assay [3] and in assay [1] were “binds” and “no binding”, respectively.

B4: L8 (aspRS-OB 13mRL mutant) displayed on phage as pIII fusion (designed binder)
chain: VYPKKTHWTAEITPNLHGTEVVVAGWVASLGDYGRVKIVKVSDREGGAAVPVYLEAGKTPDHLFKVFAELSREDVVVIKGIVEASKGVGRGVEIFPSEIWILNKAKPLPID
notes: Monoclonal phage; also called L21; L33; not shown: c-myc tag and pIII of phagemid pRPSP2 (display carriers at the C end)
With B4, the binding result in [1] was “no binding”.

B5: OBody L8, purified, GST tag removed (designed binder)
chain: VYPKKTHWTAEITPNLHGTEVVVAGWVASLGDYGRVKIVKVSDREGGAAVPVYLEAGKTPDHLFKVFAELSREDVVVIKGIVEASKGVGRGVEIFPSEIWILNKAKPLPID
notes: GST tag removed with rTEV protease; Used for co-crystallisation with lysozyme
On to B5, for which the dissociation constant Kd in assay [4] came to 36 µM.

B6: L5 (aspRS-OB 13mRL mutant) displayed on phage as pIII fusion (designed binder)
chain: VYPKKTHWTAEITPNLHGTEVVVAGWVTDLVDAGTWKFVQVADREGGANVWVSLVAGKTPDHLFKVFAELSREDVVVIKGIVEASKLPSYGVEIFPSEIWILNKAKPLPID
notes: as for B1
B6: the binding result in assay [5] was “binds”; in [1], “no binding”.

B7: L34 (aspRS-OB 13mRL mutant) displayed on phage as pIII fusion (designed binder)
chain: VYPKKTHWTAEITPNLHGTEVVVAGWVVGLMDEGALKGVEVRDREGGAPVEVTLEAGKTPDHLFKVFAELSREDVVVIKGIVEASKGYGSGVEIFPSEIWILNKAKPLPID
notes: Monoclonal phage, multivalent display, ELISA; not shown: c-myc tag and pIII of phagemid pRPSP2 (display carriers at the C end)
On to B7, for which the binding result was “no binding (tested: 10^9 cfu/well)” in assay [6], “no binding (tested: 10^9 cfu/well)” in assay [7] and “binds” in assay [8].

B8: L14 (aspRS-OB 13mRL mutant) displayed on phage as pIII fusion (designed binder)
chain: VYPKKTHWTAEITPNLHGTEVVVAGWVSDLLDAGRAKYVFVYDREGGAEVMVTLAAGKTPDHLFKVFAELSREDVVVIKGIVEASKGWRDGVEIFPSEIWILNKAKPLPID
notes: Monoclonal phage; also called L15; L32; not shown: c-myc tag and pIII of phagemid pRPSP2 (display carriers at the C end)
B8: the values for the binding result in assay [5], in assay [9] and in assay [1] were “binds”, “binds” and “no binding”, respectively.

For orientation: Kd means the constant that tells how readily two partners part at equilibrium. Higher therefore signals lower affinity.
